For 25 sequences, Kd results are on record in the Immune Epitope Database (IEDB).

In experiment [1] the target is HLA-A*02:01. Briefly: IEDB peptide-MHC binding, purified MHC/competitive/radioactivity; filed as Kd, often an IC50 or EC50 that approximates it; ≥ and ≤ were set here for values at or beyond the usual limits of such assays.
For experiment [2], the target named is HLA-A*02:07. Described as above.
Setting [3] is: source organism: Hepatitis B virus.
The mark [4] stands for this setting: source organism: Hepatitis B virus adr4.
Where [5] appears, read: source organism: Mycobacterium tuberculosis.

In general, Kd refers to the free concentration of one partner at which half of the binding sites on the other are occupied at equilibrium, for simple one-to-one binding.

AAPLILSRI: the Kd is at least 30000 nM in experiment [1] (source organism: Homo sapiens) and 6640 nM in experiment [2] (source organism: Homo sapiens).
ALAETSYVKV: the Kd in experiment [2] (source organism: Homo sapiens) is at least 23300 nM.
In the case of ALDVYNGLL, the figures for the Kd in experiment [1] (source organism: Homo sapiens) and in experiment [2] (source organism: Homo sapiens) were 96 nM and 5970 nM, respectively.
Regarding CILESLFRA, the Kd was 68 nM in experiment [1] (source organism: Homo sapiens) and 6480 nM in experiment [2] (source organism: Homo sapiens).
With GMPEGDLVYV, the Kd in experiment [2] (source organism: Homo sapiens) is 1400 nM.
Turning to ILKEPVHGV, the Kd in experiment [2] (source organism: HIV-1 M:B_MN) was at least 30000 nM.
On to KLPQLCTEL, for which the Kd in experiment [2] (source organism: Human papillomavirus 16) came out at 2660 nM.
In the case of LLFFWLDRSV, in experiment [2] (source organism: Homo sapiens), the Kd was at least 30000 nM.
For the sequence LLPFVQWFV, the Kd came out at 8.6 nM in experiment [1] (setting [3]) and 88 nM in experiment [2] (setting [3]).
With LLWKGEGAVV, the Kd in experiment [1] (source organism: HIV-1 M:B_MN) stood at 111 nM; in experiment [2] (source organism: HIV-1 M:B_MN) it was 4150 nM.
LTDAVKVMDL: the Kd in experiment [1] (source organism: Homo sapiens) and in experiment [2] (source organism: Homo sapiens) was at least 30000 nM each time.
With LVPFVQWFV, the Kd in experiment [2] (setting [4]) came out at 2530 nM.
NLDRSNDKV: the Kd in experiment [1] (source organism: Homo sapiens) and in experiment [2] (source organism: Homo sapiens) was at least 30000 nM throughout.
With QIPSYKKLI, the Kd in experiment [1] (source organism: Homo sapiens) and in experiment [2] (source organism: Homo sapiens) was at least 30000 nM throughout.
Regarding QLDPARDVL, the Kd in experiment [2] (setting [4]) was at least 30000 nM.
For RLPLVLPAV, the Kd worked out at 5.2 nM in experiment [1] (setting [5]) and 8.9 nM in experiment [2] (setting [5]).
In the case of RMPEAAPPV, the Kd in experiment [2] (source organism: Homo sapiens) worked out at 548 nM.
Consider SLDLASLIL, for which the Kd in experiment [1] (source organism: Homo sapiens) is 1610 nM; in experiment [2] (source organism: Homo sapiens), 1560 nM.
Turning to SLDSWWTSV, the values for the Kd in experiment [1] (setting [3]) and in experiment [2] (setting [3]) were 50 nM and 236 nM, respectively.
TLPSWATEDT: the Kd in experiment [1] (source organism: Homo sapiens) and in experiment [2] (source organism: Homo sapiens) was at least 30000 nM each time.
As for WVDLRSLFL, the Kd was 16700 nM in experiment [1] (source organism: HIV-1 M:B_MN) and at least 26900 nM in experiment [2] (source organism: HIV-1 M:B_MN).
Consider YLDLALMSV, for which the Kd in experiment [1] (setting [5]) was 5.6 nM; in experiment [2] (setting [5]) it was 44 nM.
Take YLQLVFGIEV: the Kd in experiment [2] (source organism: Homo sapiens) was determined as 1050 nM.
On to YMDDVVLGV, for which the Kd in experiment [2] (setting [3]) is 92 nM.
On to YTAFTIPSI, for which the Kd in experiment [2] (source organism: HIV-1 M:B_MN) is at least 30000 nM.
